Consider 3 molecules from US20150368333A1 (GlaxoSmithKline, published 2015).

Assay [1] concerns the target T1, TNF alpha (species not given) (UniProt P01375 77-233, limits assumed). The assay can be described thus: cell-based or functional assay.
For assay [2], the target named is T1, TNF alpha (species not stated in the …). The assay can be described thus: cell-based or functional assay. The source holds these as a separate data set.
Assay [3] addresses T2, recombinant human TNFα (human, UniProt P01375 77-233).
T2 construct: also called human TNF alpha; tumour necrosis factor alpha
The assay can be described thus: Biacore T100 SPR, antibody captured on Protein A, TNF alpha as analyte, 37 C. In general terms: SPR reads the build-up and loss of mass on a sensor chip optically.

Assay [4] addresses T3, recombinant cynomolgus TNF alpha (cynomolgus, UniProt P79337 77-233).
T3 construct: also called Cyno TNFα
The assay is described as above.

The target of assay [5] is T2, recombinant human TNFα. The assay can be described thus: Biacore T100 SPR, antibody captured on anti-human IgG, TNF alpha as analyte, 37 C.
Assay [6] has as its target T3, recombinant cynomolgus TNF alpha. Described as above.
Assay [7] addresses T1, TNF alpha (species not stated in the …). The assay can be described thus: ProteOn SPR reverse format, biotinylated TNF alpha captured on neutravidin (NLC) chip, antibody as analyte, 1:1 model, apparent kinetics.
Assay [8] concerns the target T4, recombinant human FcRn (human, UniProt P55899 24-297; P61769 21-119, limits assumed).
T4 construct: also called Human FcRn receptor
The assay can be described thus: SPR, antibody amine-coupled on GLM chip, FcRn as analyte, equilibrium model, pH 6.0.

The target in assay [9] is T5, recombinant cynomolgus FcRn (cynomolgus, UniProt Q8SPV9 24-297; Q8SPW0 21-119, limits assumed).
T5 construct: Construct not described; beta-2-microglobulin not mentioned; also called cyno FcRn
The assay is described as above.

Assay [10] has as its target T6, mouse FcRn (mouse, UniProt Q61559 22-297; P01887 21-119, limits assumed).
T6 construct: Construct not described; also called Mouse FcRn receptor
T6 sequence (looked up) 1: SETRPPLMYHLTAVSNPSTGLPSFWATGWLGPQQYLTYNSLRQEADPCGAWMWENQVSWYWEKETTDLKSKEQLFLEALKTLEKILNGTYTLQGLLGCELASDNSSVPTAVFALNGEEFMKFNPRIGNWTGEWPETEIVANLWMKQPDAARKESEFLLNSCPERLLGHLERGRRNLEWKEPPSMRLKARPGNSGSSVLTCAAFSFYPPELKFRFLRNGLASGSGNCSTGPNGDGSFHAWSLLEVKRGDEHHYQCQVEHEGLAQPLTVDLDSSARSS
T6 sequence (looked up) 2: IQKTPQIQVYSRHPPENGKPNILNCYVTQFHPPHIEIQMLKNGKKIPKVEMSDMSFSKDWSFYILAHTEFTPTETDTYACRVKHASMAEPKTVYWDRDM
The description is as above.

Assay [11] concerns the target T7, rat FcRn (rat, UniProt P13599 23-298; P07151 21-119, limits assumed).
T7 construct: Construct not described; also called Rat FcRn receptor
T7 sequence (looked up) 1: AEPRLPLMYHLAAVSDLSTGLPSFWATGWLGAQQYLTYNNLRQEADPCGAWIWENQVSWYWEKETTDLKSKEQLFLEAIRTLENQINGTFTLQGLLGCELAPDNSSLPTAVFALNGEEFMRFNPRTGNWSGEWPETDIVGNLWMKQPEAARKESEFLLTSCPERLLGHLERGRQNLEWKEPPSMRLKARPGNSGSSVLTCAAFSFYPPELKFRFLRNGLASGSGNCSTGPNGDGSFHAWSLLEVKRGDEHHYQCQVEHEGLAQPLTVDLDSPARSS
T7 sequence (looked up) 2: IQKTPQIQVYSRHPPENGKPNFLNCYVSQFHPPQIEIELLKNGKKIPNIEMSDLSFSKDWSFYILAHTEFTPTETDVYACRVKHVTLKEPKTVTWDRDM
The assay is described as above.

In assay [12] the target is T4, recombinant human FcRn. The assay can be described thus: SPR, antibody amine-coupled on GLM chip, FcRn as analyte, equilibrium model, pH 7.4.
For assay [13], the target named is T5, recombinant cynomolgus FcRn. The description is as above.
Assay [14] has as its target T6, mouse FcRn. The description is as above.
In assay [15] the target is T7, rat FcRn. The description is as above.
Assay [16] addresses T4, recombinant human FcRn. The assay can be described thus: SPR, antibody amine-coupled on GLM chip, FcRn as analyte, equilibrium model, pH 6.0; pH 6.0.
Assay [17] concerns the target T5, recombinant cynomolgus FcRn. Described as above.
For assay [18], the target named is T6, mouse FcRn. Described as above.
Assay [19] deals with T7, rat FcRn. Described as above.

T3 sequence (P79337 77-233 limits assumed): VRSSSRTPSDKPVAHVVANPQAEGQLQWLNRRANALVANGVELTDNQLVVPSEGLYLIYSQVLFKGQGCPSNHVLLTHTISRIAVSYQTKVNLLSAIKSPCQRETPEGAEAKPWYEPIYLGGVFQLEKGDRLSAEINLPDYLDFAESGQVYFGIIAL
T2 sequence (P01375 77-233 limits assumed): as the sequence (P79337 77-233 limits assumed) above, with V37L, T44R, N72T, L138R counted along it
T1 sequence (P01375 77-233 limits assumed): as the sequence (P79337 77-233 limits assumed) above, with V37L, T44R, N72T, L138R counted along it
T4 sequence (P55899 24-297 limits assumed, chain 1 of 2): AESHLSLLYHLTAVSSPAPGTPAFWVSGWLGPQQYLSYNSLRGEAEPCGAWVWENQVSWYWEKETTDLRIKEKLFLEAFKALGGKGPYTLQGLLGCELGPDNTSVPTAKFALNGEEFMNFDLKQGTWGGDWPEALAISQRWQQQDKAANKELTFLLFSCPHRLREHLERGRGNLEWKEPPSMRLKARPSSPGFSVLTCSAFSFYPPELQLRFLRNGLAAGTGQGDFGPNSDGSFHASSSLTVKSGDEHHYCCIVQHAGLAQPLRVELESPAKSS
T4 sequence (P61769 21-119 limits assumed, chain 2 of 2): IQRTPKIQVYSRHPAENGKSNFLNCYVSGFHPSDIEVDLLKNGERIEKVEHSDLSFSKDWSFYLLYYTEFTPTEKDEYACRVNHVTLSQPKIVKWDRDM

B1: BPC1500 (antibody, V domains shown)
VH: EVQLVESGGGLVQPGRSLRLSCAASGFTFDDHALHWVRQAPGKGLEWVSAITWNSGHIDYADSVEGRFTISRDNAKNSLYLQMNSLRAEDTAVYYCAKVRYLSTASSLDYWGQGTLVTVSS
VL: not shown
notes: also called CDR variant cb2-44, wild-type Fc; improved anti-TNFα antibody
By koff is commonly meant the rate constant with which the complex falls apart. Usually kon stands for a measure of how fast the partners come together. Consider B1, for which the “IC50, L929 neutralisation assay (cell viability)” value in assay [1] was found to be 0.13 µg/mL. In addition, the “IC50, TNFα-induced IL-6 release assay (whole blood)” value in assay [2] came out at 0.11 nM. Moreover, the Kd with recombinant human TNFα [3] amounted to 0.0156 nM; in assay [4], 0.015 nM; in the assay with recombinant human TNFα [5], 0.0157 nM; in assay [6], 0.0467 nM; in assay [7] it was 0.015 nM. Moreover, the koff with recombinant human TNFα [3] is 4.19e-05 s⁻¹; in assay [4], 3.51e-05 s⁻¹; with recombinant human TNFα [5], 7.07e-05 s⁻¹; in assay [6], 0.000209 s⁻¹; in [7], 3e-05 s⁻¹. Further, the kon with recombinant human TNFα [3] was 2.68e+06 M⁻¹ s⁻¹; in assay [4] it was 2.34e+06 M⁻¹ s⁻¹; in the assay with recombinant human TNFα [5], 4.51e+06 M⁻¹ s⁻¹; in [6] it was 4.48e+06 M⁻¹ s⁻¹; in assay [7], 2.06e+06 M⁻¹ s⁻¹.

B2: BPC2604 (antibody, human IgG1, kappa)
heavy: QVTLRESGPALVKPTQTLTLTCTFSGFSLSTSGMGVSWIRQPPGKGLEWLAHIYWDDDKRYNPSLKSRLTISKDTSRNQVVLTMTNMDPVDTATYYCARRETVFYWYFDVWGRGTLVTVSSASTKGPSVFPLAPSSKSTSGGTAALGCLVKDYFPEPVTVSWNSGALTSGVHTFPAVLQSSGLYSLSSVVTVPSSSLGTQTYICNVNHKPSNTKVDKKVEPKSCDKTHTCPPCPAPELLGGPSVFLFPPKPKDTLYITREPEVTCVVVDVSHEDPEVKFNWYVDGVEVHNAKTKPREEQYNSTYRVVSVLTVLHQDWLNGKEYKCKVSNKALPAPIEKTISKAKGQPREPQVYTLPPSRDELTKNQVSLTCLVKGFYPSDIAVEWESNGQPENNYKTTPPVLDSDGSFFLYSKLTVDKSRWQQGNVFSCSVMHEALHNHYTQKSLSLSPGK
light: DIVLTQSPSSLSASVGDRVTITCKASQSVDYDGDSYMNWYQQKPGKAPKLLIYAASNLESGIPSRFSGSGSGTDFTFTISSLQPEDIATYYCQQSNEDPPTFGQGTKVEIKRTVAAPSVFIFPPSDEQLKSGTASVVCLLNNFYPREAKVQWKVDNALQSGNSQESVTEQDSKDSTYSLSSTLTLSKADYEKHKVYACEVTHQGLSSPVTKSFNRGEC
notes: also called pascolizumab-YTE; Pasco-YTE
For B2, the Kd with recombinant human FcRn [8] stood at 98 nM; in [9], 92.1 nM; in the assay with mouse FcRn [10], 53.4 nM; in the assay with rat FcRn [11] it was 66 nM; with recombinant human FcRn [12], 11600 nM; in assay [13] it was 11100 nM. For the same molecule, the values for the Kd with mouse FcRn [14] and with rat FcRn [15] were 2160 nM and 4330 nM, respectively.

B3: Pascolizumab (antibody, human IgG1, kappa)
heavy: not shown
light: B2 light
notes: IgG1, unmodified Fc; also called anti-IL-4 antibody
With B3, the Kd with recombinant human FcRn [16] amounted to 541 nM; in assay [17] it was 505 nM; in the assay with mouse FcRn [18], 205 nM; with rat FcRn [19], 228 nM.
